Assay results: patent WO2013151666A2

Biological target: Low density lipoprotein receptor (LDLR) expressed on HEK293 cells transfected with LDLR modified mRNA (mRNA SEQ ID NO: 21463) (human) (UniProt P01130)
Test: FACS; rising amounts of BODIPY-LDL on HEK293 cells transfected with LDLR mRNA, 1 h at 37 C

Low density lipoprotein receptor (LDLR) expressed on HEK293 cells transfected with LDLR modified mRNA (mRNA SEQ ID NO: 21463) (human), sequence (P01130 22-860): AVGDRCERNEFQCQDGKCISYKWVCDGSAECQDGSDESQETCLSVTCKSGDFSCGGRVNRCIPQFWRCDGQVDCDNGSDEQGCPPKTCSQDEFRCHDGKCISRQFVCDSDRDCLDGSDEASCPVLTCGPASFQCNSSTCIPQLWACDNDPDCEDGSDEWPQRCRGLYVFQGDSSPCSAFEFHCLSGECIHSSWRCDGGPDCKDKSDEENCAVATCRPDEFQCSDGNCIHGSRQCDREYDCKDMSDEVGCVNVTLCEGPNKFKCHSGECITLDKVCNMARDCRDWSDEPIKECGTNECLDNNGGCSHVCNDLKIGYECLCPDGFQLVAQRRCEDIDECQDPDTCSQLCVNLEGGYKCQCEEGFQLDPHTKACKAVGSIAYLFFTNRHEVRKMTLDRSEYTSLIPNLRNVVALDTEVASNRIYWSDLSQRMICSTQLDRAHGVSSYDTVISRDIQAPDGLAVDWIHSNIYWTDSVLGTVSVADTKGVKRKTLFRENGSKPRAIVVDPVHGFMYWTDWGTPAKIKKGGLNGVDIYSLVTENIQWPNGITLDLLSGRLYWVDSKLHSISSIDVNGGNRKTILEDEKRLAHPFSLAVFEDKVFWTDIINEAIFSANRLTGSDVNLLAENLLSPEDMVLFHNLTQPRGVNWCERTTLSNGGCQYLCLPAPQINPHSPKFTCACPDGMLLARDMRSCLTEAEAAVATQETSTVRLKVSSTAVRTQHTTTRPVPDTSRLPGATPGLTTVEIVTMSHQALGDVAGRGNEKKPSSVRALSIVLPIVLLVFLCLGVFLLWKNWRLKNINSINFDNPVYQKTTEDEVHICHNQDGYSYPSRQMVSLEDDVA

Kd: 0.06 µg/mL
Substance: BODIPY-labeled LDL (low density lipoprotein) (from UniProt P04114 28-4563) (ligand)
